Measurements as given in PMC5046105, “Improved affinity at the cost of decreased specificity: a recurring theme in PDZ-peptide interactions” (Scientific Reports, 2016).
Residue numbers refer to the chain shown, from its start. Each block holds one molecule with its values, some of them ahead of it. Ends that are not written are not given here.

Key:
[1] = target: T1, pWT PDZ2 (pseudo wild type SAP97 PDZ2, I342W/C378A) (Homo sapiens, UniProt Q12959, C378A/I342W); assay: Stopped-flow binding kinetics, peptide with pWT PDZ2
T1 construct: constituting SAP97 residues 311–407 and the mutations I342W and C372A; His-tagged lipoyl protein domain (N, cleaved yes); made in house
T1 sequence (Q12959 311-407 I342W/C378A): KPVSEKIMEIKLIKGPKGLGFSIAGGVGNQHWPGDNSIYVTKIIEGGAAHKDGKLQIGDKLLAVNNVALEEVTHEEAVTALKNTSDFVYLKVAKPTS
Experimental: (§1) The basic experimental parameters determined were the rate constants of association (kon) and dissociation (koff) for each peptide and for all PDZ variants, respectively, in a procedure described in Fig. 2 for the interaction between PDZØ9 and the EKKHTLL peptide as an example.
(§2) Figure 2 Determination of the two rate constants kon and koff for PDZØ9 binding to the EKKHTLL peptide. kon and koff were determined in separate experiments using stopped-flow spectroscopy and monitoring the change in Trp fluorescence upon binding. (a) The experimental trace was obtained by averaging of three individual experiments in which 11 μM of the EKKHTLL peptide was mixed with 1 μM PDZØ9. The trace was fitted to a single exponential function to obtain the observed rate constant, kobs. […] (c) In a displacement reaction a pre-formed complex between PDZØ9 (1 μM) and the EKKHTLL peptide (2 μM) was mixed with a large excess of dansyl-labeled peptide corresponding to the C-terminal […] of HPV18 E6 (150 μM). […] At high concentrations of dansylated peptide, none of the dissociated EKKHTLL will re-bind, and fitting to a single exponential function returns a kobs value which is equal to the dissociation rate constant, koff, of the pre-formed complex.
(§3) All of the stopped-flow experiments conducted in order to measure the rate constants for the peptide/PDZ interactions, were performed on an SX-20 MV stopped-flow spectrometer (Applied Photophysics Leatherhead, UK) at 10 °C in 50 mM potassium phosphate buffer, pH 7.5. Fluorescence was monitored using the change in emission of Trp342 in the PDZ variants (excitation at 280 nm; emission at 330 ± 30 nm). The peptides were N-acetylated (Ontores Biotechnologies) and the concentration of the respective stock solution was determined with either absorbance, quantitative amino acid analysis or direct detect (EMD Millipore). The rate constants of association, kon, and dissociation, koff, were determined in separate experiments. […] For each PDZ variant the kobs values were plotted versus the concentration of peptide and fitted to the general equation for a reversible bimolecular interaction[38][39] from which kon was derived. The koff was measured in a displacement experiment in which a pre-formed complex of PDZ variant (1 μM) and peptide (2 μM) was mixed with high concentrations of a dansylated RRRETQV-peptide (100, and 150 μM), which competes with the unlabelled peptide for binding to the PDZ. […] The kobs value at high peptide concentration is equal to the overall koff value, as described previously.

[2] = target: T2, PDZØ9 (pWT SAP97 PDZ2 L391F/K392M) (Homo sapiens, UniProt Q12959, C378A/I342W/K392M/L391F); assay: Stopped-flow binding kinetics, peptide with PDZØ9
T2 construct: constituting SAP97 residues 311–407 and the mutations I342W and C372A; His-tagged lipoyl protein domain (N, cleaved yes); made in house
T2 sequence (Q12959 311-407 I342W/C378A/L391F/K392M): T1 sequence (Q12959 311-407 I342W/C378A) with L81F, K82M
Experimental: as §1, §2, §3

pWT PDZ2 L391F = target: T3, pWT PDZ2 L391F (Homo sapiens, UniProt Q12959, C378A/I342W/L391F); assay: Stopped-flow binding kinetics, peptide with pWT PDZ2 L391F
T3 construct: constituting SAP97 residues 311–407 and the mutations I342W and C372A; His-tagged lipoyl protein domain (N, cleaved yes); made in house
T3 sequence (Q12959 311-407 I342W/C378A/L391F): T1 sequence (Q12959 311-407 I342W/C378A) with L81F
Experimental: as §1, §2, §3

pWT PDZ2 K392M = target: T4, pWT PDZ2 K392M (Homo sapiens, UniProt Q12959, C378A/I342W/K392M); assay: Stopped-flow binding kinetics, peptide with pWT PDZ2 K392M
T4 construct: constituting SAP97 residues 311–407 and the mutations I342W and C372A; His-tagged lipoyl protein domain (N, cleaved yes); made in house
T4 sequence (Q12959 311-407 I342W/C378A/K392M): T1 sequence (Q12959 311-407 I342W/C378A) with K82M
Experimental: as §1, §2, §3

[3] = target: PDZØ9, engineered variant (L391F/K392M) of pWT SAP97 PDZ2 (human) (UniProt Q12959); assay: stopped-flow spectroscopy
[4] = target: Pseudo wild type SAP97 PDZ2 (second PDZ domain of synapse associated protein 97, I342W/C378A) (human) (UniProt Q12959); assay: stopped-flow spectroscopy
pWT PDZ2 K392M (human) = pWT PDZ2 K392M (human) (UniProt Q12959); assay: stopped-flow spectroscopy
pWT PDZ2 L391F (human) = pWT PDZ2 L391F (human) (UniProt Q12959); assay: stopped-flow spectroscopy
[5] = Kd = koff/kon, pH 7.5, 10 °C, ± propagated standard error
[6] = Trp342 fluorescence, 1 µM PDZ, peptide 2–40 µM, N-acetylated peptide, 50 mM potassium phosphate pH 7.5, 10 °C, value ± standard error
[7] = displacement of pre-formed complex (1 µM PDZ, 2 µM peptide) with 100 and 150 µM dansylated RRRETQV peptide, pH 7.5, 10 °C, value ± standard error

Sequence of PDZØ9, engineered variant (L391F/K392M) of pWT SAP97 PDZ2 (human) (Q12959 311-407, stated change not applied): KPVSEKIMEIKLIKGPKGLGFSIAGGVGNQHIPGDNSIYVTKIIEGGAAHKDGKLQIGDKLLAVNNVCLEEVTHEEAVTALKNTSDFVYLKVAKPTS
Sequence of pWT PDZ2 K392M (human) (Q12959 311-407, stated change not applied): as the sequence (Q12959 311-407, stated change not applied) above
Sequence of pWT PDZ2 L391F (human) (Q12959 311-407, stated change not applied): as the sequence (Q12959 311-407, stated change not applied) above

Molecule: Ac-YRRESAI [YRRESAI]
Kd [1, 5]: 4600 ± 100 nM
kon [1, 6]: 1.9e+07 ± 500000 M⁻¹ s⁻¹
koff [1, 7]: 87 ± 0.5 s⁻¹
Kd ([2]; Kd = koff/kon, stopped-flow, pH 7.5, 10 °C, ± propagated standard error): 770 ± 10 nM
koff ([2]; displacement of pre-formed complex (1 µM PDZ, 2 µM peptide) with 100 and 150 µM dansylated RRRETQV peptide, stopped-flow, pH 7.5, 10 °C, value ± standard error): 17 ± 0.2 s⁻¹
kon ([2]; stopped-flow, Trp342 fluorescence, 1 µM PDZ, peptide 2–40 µM, N-acetylated peptide, 50 mM potassium phosphate pH 7.5, 10 °C, value ± standard error): 2.2e+07 ± 200000 M⁻¹ s⁻¹
Kd (pWT PDZ2 L391F; [5]): 790 ± 10 nM
kon (pWT PDZ2 L391F; [6]): 1.9e+07 ± 100000 M⁻¹ s⁻¹
koff (pWT PDZ2 L391F; [7]): 15 ± 0.2 s⁻¹
Kd (pWT PDZ2 K392M; [5]): 4200 ± 100 nM
kon (pWT PDZ2 K392M; Trp342 fluorescence, 1 µM PDZ, peptide 2–40 µM, N-acetylated peptide, 50 mM potassium phosphate pH 7.5, 10 °C, value ± standard error (EKKHTLL: mean of two experiments)): 2.5e+07 ± 700000 M⁻¹ s⁻¹
koff (pWT PDZ2 K392M; [7]): 105 ± 0.5 s⁻¹

Molecule: dansyl-labeled peptide: dansyl-labeled peptide corresponding to the C-terminal six residues of HPV18 E6, competitor in displacement experiments (RRRETQV; also: dansyl label, position not given here) [reference compound]
kobs, binding of free PDZØ9 to the dansyl-labeled peptide ([2]; 150 μM dansyl-labeled peptide, initial part of displacement trace): ~1000 s⁻¹

B1: EKKHTLL peptide (C-terminus of E9PN86_HUMAN, partial transcript of EIF3M_HUMAN) (peptide)
peptide: Ac-EKKHTLL
koff [3]: 7.9 s⁻¹
kon [3]: 1.4e+07 M⁻¹ s⁻¹
koff [4]: 112 s⁻¹
kon [4]: 1.2e+07 M⁻¹ s⁻¹
koff (pWT PDZ2 K392M (human)): 157 s⁻¹
kon (pWT PDZ2 K392M (human)): 1.1e+07 M⁻¹ s⁻¹
koff (pWT PDZ2 L391F (human)): 7.1 s⁻¹
kon (pWT PDZ2 L391F (human)): 1.1e+07 M⁻¹ s⁻¹

B2: SARSTDV peptide (C-terminus of anoctamin-9) (peptide)
peptide: SARSTDV
koff [3]: 3.4 s⁻¹
kon [3]: 1.3e+07 M⁻¹ s⁻¹
koff [4]: 26 s⁻¹
kon [4]: 1.6e+07 M⁻¹ s⁻¹
koff (pWT PDZ2 K392M (human)): 25 s⁻¹
kon (pWT PDZ2 K392M (human)): 1.2e+07 M⁻¹ s⁻¹
koff (pWT PDZ2 L391F (human)): 4 s⁻¹
kon (pWT PDZ2 L391F (human)): 1.8e+07 M⁻¹ s⁻¹

B4: VSKETPL peptide (C-terminus of mitogen-activated protein kinase 12, p38γ) (peptide)
peptide: Ac-VSKETPL
koff [3]: 6.3 s⁻¹
kon [3]: 8.4e+06 M⁻¹ s⁻¹
koff [4]: 154 s⁻¹
kon [4]: 4e+07 M⁻¹ s⁻¹
koff (pWT PDZ2 K392M (human)): 150 s⁻¹
kon (pWT PDZ2 K392M (human)): 2.4e+07 M⁻¹ s⁻¹
koff (pWT PDZ2 L391F (human)): 8.8 s⁻¹
kon (pWT PDZ2 L391F (human)): 1.1e+07 M⁻¹ s⁻¹

B5: KRKETLV peptide (C-terminus of neuroepithelial cell-transforming gene 1 protein, Net1) (peptide)
peptide: Ac-KRKETLV
Kd [3]: 80 nM
koff [3]: 0.6 s⁻¹
kon [3]: 8e+06 M⁻¹ s⁻¹
Kd [4]: 470 nM
koff [4]: 3 s⁻¹
kon [4]: 6.4e+06 M⁻¹ s⁻¹
Kd (pWT PDZ2 K392M (human)): 470 nM
koff (pWT PDZ2 K392M (human)): 3.4 s⁻¹
kon (pWT PDZ2 K392M (human)): 7.2e+06 M⁻¹ s⁻¹
Kd (pWT PDZ2 L391F (human)): 80 nM
koff (pWT PDZ2 L391F (human)): 0.6 s⁻¹
kon (pWT PDZ2 L391F (human)): 7.4e+06 M⁻¹ s⁻¹

B8: YRRESAI peptide (C-terminus of inward rectifier potassium channel 4, Kir2.3) (peptide)
peptide: Ac-YRRESAI
koff [3]: 17 s⁻¹
kon [3]: 2.2e+07 M⁻¹ s⁻¹
koff [4]: 87 s⁻¹
kon [4]: 1.9e+07 M⁻¹ s⁻¹
koff (pWT PDZ2 K392M (human)): 105 s⁻¹
kon (pWT PDZ2 K392M (human)): 2.5e+07 M⁻¹ s⁻¹
koff (pWT PDZ2 L391F (human)): 15 s⁻¹
kon (pWT PDZ2 L391F (human)): 1.9e+07 M⁻¹ s⁻¹

Second part, the molecule after the results:

koff [3]: 2.6 s⁻¹
kon [3]: 1.5e+07 M⁻¹ s⁻¹
koff [4]: 71 s⁻¹
kon [4]: 3.3e+07 M⁻¹ s⁻¹
koff (pWT PDZ2 K392M (human)): 62 s⁻¹
kon (pWT PDZ2 K392M (human)): 1.5e+07 M⁻¹ s⁻¹
koff (pWT PDZ2 L391F (human)): 3.8 s⁻¹
kon (pWT PDZ2 L391F (human)): 1.8e+07 M⁻¹ s⁻¹
B3: TSRETDL peptide (C-terminus of potassium voltage-gated channel subfamily A member 5, Kv1.5) (peptide)
peptide: Ac-TSRETDL

koff [3]: 1.6 s⁻¹
kon [3]: 1e+07 M⁻¹ s⁻¹
koff [4]: 8.6 s⁻¹
kon [4]: 1.3e+07 M⁻¹ s⁻¹
koff (pWT PDZ2 K392M (human)): 7.7 s⁻¹
kon (pWT PDZ2 K392M (human)): 9.7e+06 M⁻¹ s⁻¹
koff (pWT PDZ2 L391F (human)): 1.9 s⁻¹
kon (pWT PDZ2 L391F (human)): 1.3e+07 M⁻¹ s⁻¹
B6: NSKETVV peptide (C-terminus of E3 ubiquitin-protein ligase MARCH3) (peptide)
peptide: Ac-NSKETVV

koff [3]: 4.3 s⁻¹
kon [3]: 1.7e+07 M⁻¹ s⁻¹
koff [4]: 26 s⁻¹
kon [4]: 2.1e+07 M⁻¹ s⁻¹
koff (pWT PDZ2 K392M (human)): 31 s⁻¹
kon (pWT PDZ2 K392M (human)): 1.7e+07 M⁻¹ s⁻¹
koff (pWT PDZ2 L391F (human)): 4.3 s⁻¹
kon (pWT PDZ2 L391F (human)): 2.4e+07 M⁻¹ s⁻¹
B7: RSISTDV peptide (C-terminus of protein FAM163B) (peptide)
peptide: Ac-RSISTDV
